Laboratory results as given in patent US20220064312A1 (SHIONOGI, published 2022).
Numbering of substitutions follows the chain as printed. Numbers in names are those of the source. Read-outs that look alike come from different tables or passages of the source. Each block holds one binder with its values, some of them ahead of it.

Columns and labels:
human CCR8 [1] = biological target: T1, human CCR8 (human, UniProt P51685 1-355); test: cell-based or functional assay
loop2 hCCR4-hCCR8 [2] = biological target: T2, loop2 hCCR4-hCCR8 (human, UniProt P51685 1-355); test: flow cytometry, transfected Expi293 cells; Δ = significantly reduced vs hCCR8
T2 construct: chimera on Expi293 cells; hCCR8 ranges derived; also called loop2-human CCR4-substituted human CCR8

hCCR8 (Y17A) = hCCR8 (Y17A) (human, UniProt P51685 1-355); test: flow cytometry, transfected Expi293 cells
N-ter hCCR4-hCCR8 = biological target: T3, N-ter hCCR4-hCCR8 (human); test: flow cytometry, transfected Expi293 cells
T3 construct: chimera on Expi293 cells; remaining hCCR8 ranges derived from the stated swapped ranges and the 355-residue length; also called N-terminal region human CCR4-substituted human CCR8
T3 chain: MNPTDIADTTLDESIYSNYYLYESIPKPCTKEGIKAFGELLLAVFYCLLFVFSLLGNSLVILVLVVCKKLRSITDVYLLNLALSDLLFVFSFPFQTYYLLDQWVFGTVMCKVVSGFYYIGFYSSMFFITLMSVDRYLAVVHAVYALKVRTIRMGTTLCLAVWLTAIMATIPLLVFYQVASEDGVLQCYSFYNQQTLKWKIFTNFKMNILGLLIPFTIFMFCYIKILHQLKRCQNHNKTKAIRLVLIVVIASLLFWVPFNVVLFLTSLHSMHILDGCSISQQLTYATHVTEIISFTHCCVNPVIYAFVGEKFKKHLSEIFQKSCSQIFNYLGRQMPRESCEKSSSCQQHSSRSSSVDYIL

mouse CCR8 = biological target: T4, mouse CCR8 (mouse, UniProt P56484 1-353); test: flow cytometry, transfected Expi293 cells
T4 construct: also called mCCR8
T4 sequence: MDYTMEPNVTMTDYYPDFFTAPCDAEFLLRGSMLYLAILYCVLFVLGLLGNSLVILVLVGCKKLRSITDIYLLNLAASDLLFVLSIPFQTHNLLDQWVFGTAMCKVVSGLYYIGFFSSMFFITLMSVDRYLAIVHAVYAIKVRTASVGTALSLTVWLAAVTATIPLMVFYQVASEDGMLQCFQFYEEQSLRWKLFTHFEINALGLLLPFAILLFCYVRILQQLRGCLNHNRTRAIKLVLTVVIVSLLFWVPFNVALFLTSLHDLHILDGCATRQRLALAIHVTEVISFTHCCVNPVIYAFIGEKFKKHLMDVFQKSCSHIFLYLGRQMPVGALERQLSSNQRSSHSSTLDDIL

loop1 hCCR4-hCCR8 [3] = biological target: T5, loop1 hCCR4-hCCR8 (human, UniProt P51685 1-355); test: flow cytometry, transfected Expi293 cells
T5 construct: chimera on Expi293 cells; hCCR8 ranges derived; also called loop 1-human CCR4-substituted human CCR8

human CCR4 = biological target: T6, human CCR4 (human, UniProt P51679 1-360); test: flow cytometry, transfected Expi293 cells
T6 construct: also called hCCR4
T6 sequence: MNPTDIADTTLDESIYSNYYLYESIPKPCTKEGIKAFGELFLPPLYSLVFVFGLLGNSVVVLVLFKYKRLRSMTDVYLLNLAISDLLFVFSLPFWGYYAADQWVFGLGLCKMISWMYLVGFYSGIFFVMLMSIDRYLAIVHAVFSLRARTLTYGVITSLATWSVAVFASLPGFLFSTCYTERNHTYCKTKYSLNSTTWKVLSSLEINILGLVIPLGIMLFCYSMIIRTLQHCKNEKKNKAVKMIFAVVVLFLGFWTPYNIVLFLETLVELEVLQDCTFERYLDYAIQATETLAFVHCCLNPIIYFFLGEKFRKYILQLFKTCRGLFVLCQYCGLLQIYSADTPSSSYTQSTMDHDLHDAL

human CCR8 [4] = biological target: T1, human CCR8; test: cell-based or functional assay; remark: listed apart in the source
human CCR8 [5] = biological target: T1, human CCR8; test: cell-based or functional assay; remark: listed apart in the source
hCCR8 (S23A) = hCCR8 (S23A) (human, UniProt P51685 1-355); test: flow cytometry, transfected Expi293 cells
Method: (§1) In addition to the chimeras of human CCR4 and the point mutants at the N-terminal region of human CCR8 produced in Example 3, binding evaluation was also performed for point mutants at loop1 and loop2 regions of human CCR8. […] After reacting at room temperature for 3 hours, it was reacted with Alexa488-labeled Anti-human IgG antibody (Thermo Fisher Scientific) and flow cytometry analysis was performed.
(§2) In comparison to human CCR8, a mutant having binding activity of 70% or less was indicated as Δ and a mutant having binding activity of 20% or less was indicated as x.

hCCR8 (L181A) = hCCR8 (L181A) (human, UniProt P51685 1-355); test: flow cytometry, transfected Expi293 cells
Method: as §1, §2

hCCR8 (I20A) = biological target: T7, hCCR8 (I20A) (human, UniProt P51685 1-355); test: flow cytometry, transfected Expi293 cells
T7 construct: also called hCCR8 (120A)
Method: as §1, §2

hCCR8 (L5A) = biological target: T8, hCCR8 (L5A) (human, UniProt P51685 1-355); test: flow cytometry, transfected Expi293 cells
T8 construct: also called hCCR8 (LSA)
Method: as §1, §2

hCCR8 (Y15A) = hCCR8 (Y15A) (human, UniProt P51685 1-355); test: flow cytometry, transfected Expi293 cells
Method: as §1, §2

hCCR8 (T10A) = hCCR8 (T10A) (human, UniProt P51685 1-355); test: flow cytometry, transfected Expi293 cells
Method: as §1, §2

hCCR8 (T13A) = hCCR8 (T13A) (human, UniProt P51685 1-355); test: flow cytometry, transfected Expi293 cells
Method: as §1, §2

hCCR8 (K193A) = hCCR8 (K193A) (human, UniProt P51685 1-355); test: flow cytometry, transfected Expi293 cells
Method: as §1, §2

hCCR8 (K35A) = hCCR8 (K35A) (human, UniProt P51685 1-355); test: flow cytometry, transfected Expi293 cells
Method: as §1, §2

hCCR8 (N188A) = hCCR8 (N188A) (human, UniProt P51685 1-355); test: flow cytometry, transfected Expi293 cells
Method: as §1, §2

loop1 hCCR4-hCCR8 [6] = biological target: T5, loop1 hCCR4-hCCR8; test: flow cytometry, transfected Expi293 cells; remark: listed apart in the source
Method: as §1, §2

loop2 hCCR4-hCCR8 [7] = biological target: T2, loop2 hCCR4-hCCR8; test: flow cytometry, transfected Expi293 cells
Method: as §1, §2

hCCR8 (L29A) = hCCR8 (L29A) (human, UniProt P51685 1-355); test: flow cytometry, transfected Expi293 cells
Method: as §1, §2

hCCR8 (S22A) = hCCR8 (S22A) (human, UniProt P51685 1-355); test: flow cytometry, transfected Expi293 cells
Method: as §1, §2

loop3 hCCR4-hCCR8 = biological target: T9, loop3 hCCR4-hCCR8 (human, UniProt P51685 1-355); test: flow cytometry, transfected Expi293 cells
T9 construct: chimera on Expi293 cells; hCCR8 ranges derived
Method: as §1, §2

hCCR8 (T11A) = hCCR8 (T11A) (human, UniProt P51685 1-355); test: flow cytometry, transfected Expi293 cells
Method: as §1, §2

T1 sequence (P51685 whole entry): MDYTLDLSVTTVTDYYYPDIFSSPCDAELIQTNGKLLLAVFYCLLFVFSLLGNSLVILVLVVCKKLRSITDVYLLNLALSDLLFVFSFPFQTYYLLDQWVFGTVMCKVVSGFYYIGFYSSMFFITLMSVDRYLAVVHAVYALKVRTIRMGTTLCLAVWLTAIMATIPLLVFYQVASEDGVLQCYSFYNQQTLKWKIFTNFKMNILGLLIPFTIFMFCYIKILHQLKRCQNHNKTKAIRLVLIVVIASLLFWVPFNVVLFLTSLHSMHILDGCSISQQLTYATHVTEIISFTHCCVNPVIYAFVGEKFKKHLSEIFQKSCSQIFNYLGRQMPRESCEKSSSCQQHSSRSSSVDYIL
hCCR8 (Y17A), sequence (P51685 whole entry Y17A): as the sequence (P51685 whole entry) above, with Y17A counted along it

IC50 (nM), Ca2+ influx by 200 nM hCCL1 (human CCR8 [1]): 1.19 nM
binding result (loop2 hCCR4-hCCR8 [2]): binds
binding result (hCCR8 (Y17A)): no binding
binding result (N-ter hCCR4-hCCR8): no binding
binding result (mouse CCR8): no binding
binding result (loop1 hCCR4-hCCR8 [3]): no binding
binding result (human CCR4): no binding
Neutralizing Activity IC50 (nM), Ca2+ influx by 100 nM hCCL1 (human CCR8 [4]): 0.4 nM
B1: 2C7 (antibody, V domains shown)
VH: QVQLKQSGPSLVQPSQSLSITCTVSGFSLTAYGVHWIRQSPGKGQEWLGVIWRGGSTDYNAAFMSRLTITKDNSKSQVFFKMNSLQADDTAIYYCAKKGGSYAMDYWGQGTSVTVSS
VL: DVVLTQTPLSLPVSLGGQASISCRSSQSLVHSNGNTYLHWYLQKPGQSPKLLIYKVSNRFSGVPDRFSGSGSGTDFTLKISRVEAEDLGVYFCSQSTQVPLTFGAGTKLELKR
notes: mouse hybridoma antibody

IC50 (nM), Ca2+ influx by 200 nM hCCL1 (human CCR8 [5]): 0.46 nM
B2: h19D7 (IGKV2-18/IGHV3-73) (antibody, V domains shown)
VH: EVQLVESGGGLVQPGGSLKLSCAASGFTFSTYAMYWVRQASGKGLEWVGRIRSKSNNYATYYADSVKDRFTISRDDSKNTAYLQMNSLKTEDTAVYYCTRGGYGNYRYAMDYWGQGTTVTVSS
VL: DIVMTQTPPSLPVNPGEPASISCRSSKSLLHSNGNTYLYWYLQKPGQSPQLLIYRVSNLASGVPDRFSGSGSGSDFTLKISWVEAEDVGVYYCMQHLEYPFTFGQGTKLEIK

binding activity in comparison to human CCR8 (hCCR8 (S23A)): ≤ 70%
binding activity in comparison to human CCR8 (hCCR8 (L181A)): ≤ 70%
binding activity in comparison to human CCR8 (hCCR8 (I20A)): ≤ 70%
binding activity in comparison to human CCR8 (hCCR8 (L5A)): ≤ 70%
binding activity in comparison to human CCR8 (hCCR8 (Y15A)): ≤ 70%
binding activity in comparison to human CCR8 (hCCR8 (T10A)): ≤ 70%
binding activity in comparison to human CCR8 (hCCR8 (T13A)): ≤ 70%
binding activity in comparison to human CCR8 (hCCR8 (K193A)): ≤ 70%
binding activity in comparison to human CCR8 (hCCR8 (K35A)): ≤ 70%
binding activity in comparison to human CCR8 (hCCR8 (N188A)): ≤ 70%
binding activity in comparison to human CCR8 (loop1 hCCR4-hCCR8 [6]): ≤ 70%
binding activity in comparison to human CCR8 (loop2 hCCR4-hCCR8 [7]): ≤ 70%
binding activity in comparison to human CCR8 (hCCR8 (L29A)): ≤ 70%
binding activity in comparison to human CCR8 (hCCR8 (S22A)): ≤ 70%
binding activity in comparison to human CCR8 (loop3 hCCR4-hCCR8): ≤ 70%
binding activity in comparison to human CCR8 (hCCR8 (T11A)): ≤ 70%
B3: h19D7 (IGKV3-20/IGHV3-15 T94R) (antibody, V domains shown)
VH: B2 VH with G10A, Q13K, K19R, S41P, A81L
VL: EIVLTQSPGTLSLSPGERATLSCRSSKSLLHSNGNTYLYWYQQKPGQAPRLLIYRVSNLASGIPDRFSGSGSGTDFTLTISRLEPEDFAVYYCMQHLEYPFTFGQGTKLEIK
notes: humanized; detected with anti-human IgG
